From patent US20030165841, “Use of phosphorothiolate polynucleotides in ligating nucleic acids” (published 2003)

T1: Topo65 (human topoisomerase I fragment, residues 215-765) (Homo sapiens, UniProt P11387 SEQ:22-572)
T1 chain: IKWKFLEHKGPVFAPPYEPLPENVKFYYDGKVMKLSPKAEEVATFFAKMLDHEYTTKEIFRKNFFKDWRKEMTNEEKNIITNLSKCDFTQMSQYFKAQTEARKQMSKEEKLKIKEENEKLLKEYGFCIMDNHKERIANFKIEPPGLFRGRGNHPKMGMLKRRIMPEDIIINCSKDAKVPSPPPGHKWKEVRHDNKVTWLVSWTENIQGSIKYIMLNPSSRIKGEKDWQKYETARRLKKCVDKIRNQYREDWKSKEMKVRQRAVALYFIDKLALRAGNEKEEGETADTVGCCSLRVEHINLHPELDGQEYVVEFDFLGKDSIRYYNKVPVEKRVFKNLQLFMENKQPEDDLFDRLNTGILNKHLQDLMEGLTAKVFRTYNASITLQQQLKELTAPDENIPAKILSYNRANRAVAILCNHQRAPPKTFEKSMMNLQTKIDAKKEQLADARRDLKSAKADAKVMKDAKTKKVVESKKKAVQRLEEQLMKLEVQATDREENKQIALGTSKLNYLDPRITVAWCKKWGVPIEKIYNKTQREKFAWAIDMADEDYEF

B1: suicide 22-mer duplex (dsDNA)
DNA 1: AAAAAGACTTAGAAAAATTTTT
DNA 2: AAAAATTTTTCTAAGTCTTTTT
modifications: 5'-bridging phosphorothiolate between GACTT and AGAAAA of top strand

Columns and labels:
[1] = target: T1, Topo65 (human topoisomerase I fragment, …); assay: no gel shift with single strand alone
Method: (§1) The duplex substrates shown in FIGS. 3A and 3B were reacted overnight at room temperature with Topo65. The reaction mixtures contained 3 μM Topo65, 10 μM duplex substrate, 10 mM Tris-HCl, pH 7.5, 100 mM KCl, 10 mM MgCl2, 1 mM EDTA, and 2 mM DTT. The reaction products were adjusted to 1 M NaCl or NOT and then analyzed by 10% SDS-PAGE and Coomassie Blue staining (lanes 4-7). FIG. 4 is a photograph of the stained gel.
This experiment was repeated after removal of the DMT from the AS oligonucleotides by acid treatment, and an identical gel-shift was observed on reaction of “DMT off” oligonucleotide complexes with Topo65. However, no gel shift was observed if duplex generated from ratios of single strand oligonucleotides alone, for example, TCRIBamS, TCRIBamAS, TCRIBstBS or TCRIBstBAS alone.

[2] = target: T1, Topo65 (human topoisomerase I fragment, …); assay: covalent complex by SDS-PAGE shift; enzyme reacts quantitatively
Method: as §1
As a control, Topo65 was allowed to react with a duplex 22-mer suicide substrate. The suicide substrate contains a centrally positioned 5′-bridging phosphorothiolate.

Binder	binding result [1]	binding result [2]
GATCAAGTCTTTTTGCGGCCGCG (ssDNA) [TCRIBamAS alone]	no binding	
AATTCGCGGCCGCAAAAAGACTTGATC (ssDNA, 5'-bridging phosphorothiolate 4 bases from 3' end) [TCRIBamS alone]	no binding	
B1		binds
CGAAGTCTTTTTGCGGCCGCG (ssDNA) [TCRIBstBAS alone]	no binding	
AATTCGCGGCCGCAAAAAGACTTCG (ssDNA, 5'-bridging phosphorothiolate 2 bases from 3' end) [TCRIBstBS alone]	no binding	
